Test results published in patent US20220235143A1.

Assays:
[1] = target: MUC16 c114 expressed on transfected SKOV3 cells (SKOV3^c114) (human); assay: Lindmo cell-binding assay on SKOV3^c114 cells
[2] = target: MUC16 c114 expressed on transfected SKOV3 cells (SKOV3^c114) (human); assay: saturation binding of 89Zr-DFO antibody on SKOV3^c114 cells
[3] = target: MUC16 c114 expressed on transfected SKOV3 cells (SKOV3^c114) (human); assay: Lindmo cell-binding assay, 89Zr-DFO antibody on SKOV3^c114 cells
[4] = target: MUC16 c114 expressed on transfected SKOV3 cells (SKOV3^c114) (human); assay: saturation binding assay, 89Zr-labeled antibody on SKOV3^c114 cells, cell bound activity (counts); right panel
[5] = target: MUC16 as naturally expressed on ovarian cancer cell lines (OVCAR3; also OVCA-433, CAOV3) (human); assay: FACS surface staining of OVCAR3 cells, goat anti-mouse IgG2b-PE detection; same cells: secondary alone 65.8, cells only 24.6
[6] = target: MUC16 as naturally expressed on ovarian cancer cell lines (OVCAR3; also OVCA-433, CAOV3) (human); assay: FACS surface staining of OVCAR3 cells, goat anti-mouse IgG2b-PE detection; same cells: secondary alone 1.95, cells only 0.34
[7] = target: MUC16 c114 expressed on transfected SKOV3 cells (SKOV3^c114) (human); assay: FACS surface staining of SKOV3-c114 transfectant cells, goat anti-mouse IgG2b-PE detection; same cells: secondary alone 138, cells only 36.8; 4H11 on vector control SKOV3-phrGFP 162
[8] = target: MUC16 c344 expressed on transfected cells (SKOV3-phrGFP-MUC16c344, A2780-phrGFP-MUC16c344) (human); assay: FACS surface staining of SKOV3-c344 transfectant cells, goat anti-mouse IgG2b-PE detection; same cells: secondary alone 106, cells only 49.2; 4H11 on vector control SKOV3-phrGFP 162
[9] = target: MUC16 c114 expressed on transfected SKOV3 cells (SKOV3^c114) (human); assay: FACS surface staining of A2780-c114 transfectant cells, goat anti-mouse IgG2b-PE detection; same cells: secondary alone 0.10, cells only 0.01; 4H11 on vector control A2780-phrGFP 0.88
[10] = target: MUC16 c344 expressed on transfected cells (SKOV3-phrGFP-MUC16c344, A2780-phrGFP-MUC16c344) (human); assay: FACS surface staining of A2780-c344 transfectant cells, goat anti-mouse IgG2b-PE detection; same cells: secondary alone 0.68, cells only 0.07; 4H11 on vector control A2780-phrGFP 0.88
[11] = target: MUC16 c114 expressed on transfected SKOV3 cells (SKOV3^c114) (human); assay: FACS surface staining of SKOV3-c114 transfectant cells, goat anti-mouse IgG2b-PE detection; same cells: secondary alone 6.80, cells only 0.14; 4H11 on vector control SKOV3-phrGFP 2.80
[12] = target: MUC16 c344 expressed on transfected cells (SKOV3-phrGFP-MUC16c344, A2780-phrGFP-MUC16c344) (human); assay: FACS surface staining of SKOV3-c344 transfectant cells, goat anti-mouse IgG2b-PE detection; same cells: secondary alone 0.53, cells only 0.04; 4H11 on vector control SKOV3-phrGFP 2.80
[13] = target: MUC16 c114 expressed on transfected SKOV3 cells (SKOV3^c114) (human); assay: FACS surface staining of A2780-c114 transfectant cells, goat anti-mouse IgG2b-PE detection; same cells: secondary alone 42.3, cells only 24.6; 4H11 on vector control A2780-phrGFP: bar at the level of secondary alone, label overlapped
[14] = target: MUC16 c344 expressed on transfected cells (SKOV3-phrGFP-MUC16c344, A2780-phrGFP-MUC16c344) (human); assay: FACS surface staining of A2780-c344 transfectant cells, goat anti-mouse IgG2b-PE detection; same cells: secondary alone 69.8, cells only 33.7; 4H11 on vector control A2780-phrGFP: bar at the level of secondary alone, label overlapped

MUC16 c114 expressed on transfected SKOV3 cells (SKOV3^c114) (human), sequence (chain, as listed by the source limits assumed): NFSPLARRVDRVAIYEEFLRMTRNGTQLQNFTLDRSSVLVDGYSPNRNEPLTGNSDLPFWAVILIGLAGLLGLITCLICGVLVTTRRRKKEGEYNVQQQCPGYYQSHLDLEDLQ
MUC16 c344 expressed on transfected cells (SKOV3-phrGFP-MUC16c344, A2780-phrGFP-MUC16c344) (human), sequence (chain, as listed by the source limits assumed): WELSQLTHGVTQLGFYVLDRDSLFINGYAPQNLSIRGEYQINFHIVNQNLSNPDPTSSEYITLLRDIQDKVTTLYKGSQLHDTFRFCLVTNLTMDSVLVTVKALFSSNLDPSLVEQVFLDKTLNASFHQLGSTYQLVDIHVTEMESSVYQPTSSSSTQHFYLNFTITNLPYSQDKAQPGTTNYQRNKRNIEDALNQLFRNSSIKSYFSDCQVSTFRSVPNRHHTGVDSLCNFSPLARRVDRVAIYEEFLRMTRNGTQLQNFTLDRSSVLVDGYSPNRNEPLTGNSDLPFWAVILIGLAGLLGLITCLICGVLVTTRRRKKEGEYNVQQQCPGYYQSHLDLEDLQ

Substance: 4H11 murine monoclonal antibody
- immunoreactive fraction [1]: > 80%
- Kd [2]: 6.4 nM
- Immunoreactive Fraction (%) [3]: 88.3%
- EC50 (read off the curve) [4]: 6 nM
- Kd [4]: 6.37 nM
- Geometric Mean PE Fluorescence (Relative Number) [5]: 3050
- % PE Positive [6]: 98.5%
- Geometric Mean PE Fluorescence (Relative Number) [7]: 2080
- Geometric Mean PE Fluorescence (Relative Number) [8]: 1580
- % PE Positive [9]: 71.3%
- % PE Positive [10]: 93.8%
- % PE Positive [11]: 95.9%
- % PE Positive [12]: 41.2%
- Geometric Mean PE Fluorescence (Relative Number) [13]: 544
- Geometric Mean PE Fluorescence (Relative Number) [14]: 777
